From PMC9838529, “The neoepitope of the complement C5b-9 Membrane Attack Complex is formed by proximity of adjacent ancillary regions of C9” (Communications Biology, 2023)
Values belong to the binder of their own block, whether it stands above or below them.

How the values were obtained:
[1] = biological target: T1, whole MAC (C5b6, C7, C8αβγ, human C9) formed on liposomes (Homo sapiens); assay: far-Western, overlay or dot blot; slot immunoblot of MAC formed on liposomes from C5b6 (1 to 16.8 nM), C7 30 nM, C8 30 nM, C9 7 nM; probed with aE11; settings: both partners purified
T1 construct: C5b of C5b6: beta chain of complement C5; C5b of C5b6: alpha' chain of complement C5 (alpha chain without C5a); complement component C6 of C5b6; complement component C7; complement component C8 alpha chain; complement component C8 beta chain; complement component C8 gamma chain; complement component C9, human, wild type, as in m8; oligomeric in the MAC; also called C5b-9; oligomeric human C9 …
T1 sequence (P02748 22-559): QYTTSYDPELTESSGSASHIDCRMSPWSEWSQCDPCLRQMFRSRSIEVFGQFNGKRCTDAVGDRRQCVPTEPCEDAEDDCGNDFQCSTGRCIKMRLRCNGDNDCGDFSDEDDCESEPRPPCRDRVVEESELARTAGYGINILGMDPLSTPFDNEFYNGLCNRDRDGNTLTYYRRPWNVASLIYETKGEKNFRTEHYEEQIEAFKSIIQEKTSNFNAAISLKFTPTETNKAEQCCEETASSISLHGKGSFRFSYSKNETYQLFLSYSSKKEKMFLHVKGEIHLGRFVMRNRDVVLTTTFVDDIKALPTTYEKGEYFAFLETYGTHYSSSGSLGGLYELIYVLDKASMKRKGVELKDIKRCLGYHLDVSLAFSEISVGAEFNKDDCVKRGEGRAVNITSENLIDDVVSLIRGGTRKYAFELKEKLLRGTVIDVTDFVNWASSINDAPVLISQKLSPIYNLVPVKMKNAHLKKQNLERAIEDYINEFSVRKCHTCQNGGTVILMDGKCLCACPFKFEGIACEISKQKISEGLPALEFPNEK

[2] = biological target: T2, polyC9 (in vitro homo-oligomerised human C9, wild type) (human); assay: SPR; aE11 IgG amine-coupled to a CM5 chip (~700 RU), polyC9 as analyte; Biacore T200, 25 °C; 10 mM HEPES-NaOH pH 7.2, 150 mM NaCl, 1 mM EDTA, 0.005% P20; multi-cycle kinetics; maximum response as relative measure; one-to-one model disregarding multivalency; settings: both partners purified
T2 construct: complement component C9, human, wild type, cloned in pSecTag2A; Tag-less purification; also called oligomeric C9; wild type oligomeric C9; source: Expi293F, purified (DEAE, CHT, SEC); oligomerised by incubating 1 mg/mL C9 overnight at 37 °C; copies: 22
T2 sequence (chain, as listed by the source): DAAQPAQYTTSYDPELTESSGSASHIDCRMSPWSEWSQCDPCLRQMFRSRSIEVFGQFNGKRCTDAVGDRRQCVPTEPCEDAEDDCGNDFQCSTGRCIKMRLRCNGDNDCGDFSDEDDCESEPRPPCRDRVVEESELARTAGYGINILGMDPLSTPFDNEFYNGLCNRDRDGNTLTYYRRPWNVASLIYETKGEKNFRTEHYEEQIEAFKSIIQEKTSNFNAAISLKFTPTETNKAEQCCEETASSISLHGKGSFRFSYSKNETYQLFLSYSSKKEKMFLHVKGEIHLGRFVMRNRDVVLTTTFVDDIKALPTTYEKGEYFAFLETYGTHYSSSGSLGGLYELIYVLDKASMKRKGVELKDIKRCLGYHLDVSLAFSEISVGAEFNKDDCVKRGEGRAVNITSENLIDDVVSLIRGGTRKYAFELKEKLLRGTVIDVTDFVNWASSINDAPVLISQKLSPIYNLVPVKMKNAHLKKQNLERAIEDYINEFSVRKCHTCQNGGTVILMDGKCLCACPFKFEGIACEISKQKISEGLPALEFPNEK

[3] = biological target: the molecule itself; assay: SEC; analytical size exclusion (Superdex 200 Increase 5/150 GL) of C9 after the polyC9 reaction (10 mM HEPES pH 7.2, 50 mM NaCl, overnight at 37 °C); oligomer in the void volume (~1.2 mL), monomer at ~2.1 mL

- binding result [1]: binds
- koff [2]: ~1e-06 s⁻¹
B1: aE11 IgG (antibody, V domains shown)
VH: QVQLKESGPGLVAPSQSLSITCTVSGFSLTVYGVNWIRQPPGKGLEWLGMIWGDGSTDYNSALKSRLSITKDNSKSQVFLKMNSLQTDDTARYYCARDRSYGGSSAWFGYWGQGTLVTVSA
VL: DIQMTQTTSSLSASLGDRVTISCRASHDISNYLNWYQQKPDGTLKLLIYYTSRLHSGVPSRFSGSGSGTDYSLTISNLEQEDVATYFCQQGNYLPYTFGGGTKLEIK
notes: heavy chain of mouse monoclonal aE11; variable region as the heavy chain of m1 in PDB 8DE6; light chain (kappa) of mouse monoclonal aE11; variable region as the light chain of m1 in PDB 8DE6; also called monoclonal aE11; full aE11 IgG; source: purified from hybridoma supernatant by protein G chromatography

B2: human complement C9 V68E (natural protein)
chain: not shown
notes: complement component C9, human, human-to-murine point mutant; source: Expi293F, purified tag-less (anion exchange, CHT, SEC)
- binding result [3]: binds

B3: human complement C9 R65Q/V68E/P72E (natural protein)
chain: not shown
notes: complement component C9, human, human-to-murine triple mutant; also called triple mutant; source: Expi293F, purified tag-less (anion exchange, CHT, SEC)
- binding result [3]: binds
